{"source": "patent US20120244171A1", "about": "(IMMUNOGEN, published 2012)", "binders": {"B1": {"name": "huFOLR1-SPDB-1f conjugate (antibody, human IgG1, kappa, V domains shown)", "VH": "QVQLVQSGAEVVKPGASVKISCKASGYTFTGYFMNWVKQSPGQSLEWIGRIHPYDGDTFYNQKFQGKATLTVDKSSNTAHMELLSLTSEDFAVYYCTRYDGSRAMDYWGQGTTVTVSS", "VL": "DIVLTQSPLSLAVSLGQPAIISCKASQSVSFAGTSLMHWYHQKPGQQPRLLIYRASNLEAGVPDRFSGSGSKTDFTLTISPVEAEDAATYYCQQSREYPYTFGGGTKLEIKR", "modifications": "compound 1f linked through the SPDB linker; positions not given"}}, "biological_target": "human folate receptor 1 (human, UniProt P15328 25-234)", "sequence (P15328 25-234)": "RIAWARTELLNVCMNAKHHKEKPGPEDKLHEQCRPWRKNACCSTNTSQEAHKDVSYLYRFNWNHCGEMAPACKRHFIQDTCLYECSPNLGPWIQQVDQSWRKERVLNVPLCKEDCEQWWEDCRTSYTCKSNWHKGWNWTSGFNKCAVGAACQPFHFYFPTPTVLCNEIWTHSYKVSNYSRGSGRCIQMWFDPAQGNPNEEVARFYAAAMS", "experiment": "cell-based or functional assay"}
{"binder": "B1", "values": [{"measurement": "fold loss of cytotoxic potency when blocked with unconjugated antibody", "value": 40, "unit": "fold"}, {"measurement": "fold reduction of cytotoxic effect on KB cells by an excess of unconjugated huFOLR1 antibody", "value": "> 40", "unit": "fold"}, {"measurement": "in vitro cytotoxicity IC50 on antigen positive KB cells", "value": 55, "unit": "pM"}]}
